Measurements taken from patent publication US20230167453, “RNA APTAMERS AND USE THEREOF FOR TREATING CANCER” (Board of Regents, The University of Texas System, published 2023).

How the values were obtained:
[1] = molecular target: T1, CD5L (CD5 antigen-like) (Homo sapiens, UniProt O43866 O43866:20-347); assay: MST; pH 7.4, 1 mM MgCl2, 0.1% Tween20; conditions: tags: His-tagged, Sino Biological 10791-H08H; fluorescently labeled for MST except with Cy5-S76.T; predicted hairpin
T1 sequence: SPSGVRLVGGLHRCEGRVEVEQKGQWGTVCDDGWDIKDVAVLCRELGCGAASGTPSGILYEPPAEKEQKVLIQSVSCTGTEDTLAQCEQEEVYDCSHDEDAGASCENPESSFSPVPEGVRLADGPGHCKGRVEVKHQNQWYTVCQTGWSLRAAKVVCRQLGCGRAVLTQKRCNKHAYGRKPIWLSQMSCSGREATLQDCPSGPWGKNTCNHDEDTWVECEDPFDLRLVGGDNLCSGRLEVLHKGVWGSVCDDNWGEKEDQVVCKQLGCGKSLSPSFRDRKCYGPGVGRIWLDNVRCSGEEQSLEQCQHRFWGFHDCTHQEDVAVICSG
Procedure: (§1) Regarding the three sequences of the second selection, S11 and S23 sequences were incubated with constant concentration (1 nM) of labeled CD5L purified recombinant protein (Sino Biological Inc., Beijing, China) or labeled VEGF scrambled protein used as negative control (R&D System). S11 and S23 were diluted 1:1 (from 15000 to 0.05 nM) in binding buffer (pH 7.4, 1 mM MgCl2, 0.1% Tween20). S76 sequence was diluted 1:1 in Tris-buffered saline (TBS) from 1000 nM to 0.03 nM. S76.T was labeled with Cy5 and the concentration was kept constant at 2 nM. CD5L was diluted from 2000 nM to 0.06 nM in 50 mM Tris-HCl pH 7.8, 150 mM NaCl, 0.05% Tween20. 5 μl of each dilution step were mixed with 5 μl of the labeled CD5L or VEGF. The final reaction mixture contained a respective amount of aptamer sequences and constant 1 nM labeled CD5L or VEGF.

[2] = molecular target: T1, CD5L (CD5 antigen-like); assay: MST; 50 mM Tris-HCl pH 7.8, 150 mM NaCl, 10 mM MgCl2, 0.05% Tween-20; 2 nM Cy5-S76.T; conditions: tags: His-tagged, Sino Biological 10791-H08H; fluorescently labeled for MST except with Cy5-S76.T; label: Cy5 (MST); hairpin
Procedure: For Cy5 labeled S76.T, a serial dilution of CD5L was prepared in the buffer composed by 50 mM Tris-HCl pH7.8, 150 mM NaCl, 10 mM MgCl2, 0.05 Tween-20. The highest concentration of CD5L was 2000 nM and the lowest 0.06 nM. 4 μl of each dilution step were mixed with 4 μl of the Cy5 labeled S76 truncated (4 nM stock). The final reaction mixture, which was filled in standard capillaries, contained a respective amount of CD5L (max. conc. 1000 nM, min conc. 0.03 nM) and constant 2 nM labeled S76 truncated MST measurement was obtained using Monolith NT.115 (NanoTemper Technologies GmbH, Munich, Germany) with standard capillaries. KD was determined as described by (Stoltenburg et al., 2015).

[3] = molecular target: T1, CD5L (CD5 antigen-like); assay: MST; PBS pH 7.4, 1 mM MgCl2, 0.05% Tween20; conditions: tags: His-tagged, Sino Biological 10791-H08H; fluorescently labeled for MST except with Cy5-S76.T; three predicted hairpins followed by single-strand ends
Procedure: A serial dilution of S5, S47, S63 and S72 was prepared in specific buffer composed by PBS pH 7.4, 1 mM of MgCl2 and 0.05% Tween20. The highest concentration used was 18000 nM and the lowest 0.54 nM. 4 μl of each dilution step were mixed with 4 μl of the labeled molecule CD5L purified recombinant protein (Sino Biological Inc., Beijing, China) or VEGF scrambled protein used as negative control (R&D System) (constant concentration of 12.5 nM).

[4] = molecular target: T1, CD5L (CD5 antigen-like); assay: MST; TBS; 1 nM labeled CD5L; conditions: tags: His-tagged, Sino Biological 10791-H08H; fluorescently labeled for MST except with Cy5-S76.T; predicted hairpin
Procedure: as §1

B1: S11 (ssRNA)
RNA: AGACAAGAAUAAACGCUCAAUUAUCGGAGAGGCCGAACAGAUACUUCGUUAGACACCUUGCAGCGUUCGACAGGAGGC
modifications: 2'-F pyrimidines
Kd [1]: 59.2 nM

AGGUUGCAGCGUUCGACAGGAGGCUCACAACAG (ssRNA, 2'-F pyrimidines) [S76.T]
Kd [2]: 10.1 nM

B2: S23 (ssRNA)
RNA: AGACAAGAAUAAACGCUCAAAAAGAGAGAAGGAUAAGAACCAUCAAAAAGAGAGAGCAGAGCCAGAUUCGACAGGAGGCUCACAACAGGC
modifications: 2'-F pyrimidines
Kd [1]: 92.1 nM

B3: S5 (ssRNA)
RNA: AGACAAGAAUAAACGCUCAAGCGAAGGUGUGACCACAAACCACAUAAAGGCAAGGUCGCGCCGCGUUCGACAGGAGGCUCACAACAGGC
modifications: 2'-F pyrimidines
Kd [3]: 556 nM

B4: S76 (ssRNA)
RNA: AGACAAGAAUAAACGCUCAAUUAUCGGAGAGGCCGAACAGAUACUUCGUUAGACAGGUUGCAGCGUUCGACAGGAGGCUCACAACAGGC
modifications: 2'-F pyrimidines
Kd [4]: 2.2 nM
